From IntAct's records for PubMed 29892012

B1: Late cornified envelope protein 1B (Homo sapiens), Q5T7P3 (parent)
chain: MSCQQNQQQCQPPPKCIPKCPPKCLTPRCPPKCPPKCPPVSSCCSVSSGGCCGSSSGGSCGSSSGGCCSSGGGGCCLSHHRRRRSHCHRPQSSGCCSQPSGGSSCCGGGSGQHSGGCC
partner: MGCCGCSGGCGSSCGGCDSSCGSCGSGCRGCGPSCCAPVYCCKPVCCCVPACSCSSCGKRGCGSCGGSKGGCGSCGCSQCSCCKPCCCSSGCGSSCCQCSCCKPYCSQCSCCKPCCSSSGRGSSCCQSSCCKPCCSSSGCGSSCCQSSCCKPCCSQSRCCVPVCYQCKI
B2: Late cornified envelope protein 1B (Homo sapiens), Q5T7P3 (parent)
chain: B1 chain
partner: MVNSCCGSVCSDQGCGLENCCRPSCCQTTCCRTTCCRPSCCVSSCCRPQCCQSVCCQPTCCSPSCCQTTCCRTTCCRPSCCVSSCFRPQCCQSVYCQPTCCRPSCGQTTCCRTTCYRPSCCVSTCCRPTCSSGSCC
B3: Late cornified envelope protein 1B (Homo sapiens), Q5T7P3 (parent)
chain: B1 chain
B4: Retinoic acid receptor alpha (Homo sapiens), P10276 (parent)
chain: MASNSSSCPTPGGGHLNGYPVPPYAFFFPPMLGGLSPPGALTTLQHQLPVSGYSTPSPATIETQSSSSEEIVPSPPSPPPLPRIYKPCFVCQDKSSGYHYGVSACEGCKGFFRRSIQKNMVYTCHRDKNCIINKVTRNRCQYCRLQKCFEVGMSKESVRNDRNKKKKEVPKPECSESYTLTPEVGELIEKVRKAHQETFPALCQLGKYTTNNSSEQRVSLDIDLWDKFSELSTKCIIKTVEFAKQLPGFTTLTIADQITLLKAACLDILILRICTRYTPEQDTMTFSDGLTLNRTQMHNAGFGPLTDLVFAFANQLLPLEMDDAETGLLSAICLICGDRQDLEQPDRVDMLQEPLLEALKVYVRKRRPSRPHMFPKMLMKITDLRSISAKGAERVITLKMEIPGSMPPLIQEMLENSEGLDTLSGQPGGGGRDGGGLAPPPGSCSPSLSPSSNRSSPATHSP
partner: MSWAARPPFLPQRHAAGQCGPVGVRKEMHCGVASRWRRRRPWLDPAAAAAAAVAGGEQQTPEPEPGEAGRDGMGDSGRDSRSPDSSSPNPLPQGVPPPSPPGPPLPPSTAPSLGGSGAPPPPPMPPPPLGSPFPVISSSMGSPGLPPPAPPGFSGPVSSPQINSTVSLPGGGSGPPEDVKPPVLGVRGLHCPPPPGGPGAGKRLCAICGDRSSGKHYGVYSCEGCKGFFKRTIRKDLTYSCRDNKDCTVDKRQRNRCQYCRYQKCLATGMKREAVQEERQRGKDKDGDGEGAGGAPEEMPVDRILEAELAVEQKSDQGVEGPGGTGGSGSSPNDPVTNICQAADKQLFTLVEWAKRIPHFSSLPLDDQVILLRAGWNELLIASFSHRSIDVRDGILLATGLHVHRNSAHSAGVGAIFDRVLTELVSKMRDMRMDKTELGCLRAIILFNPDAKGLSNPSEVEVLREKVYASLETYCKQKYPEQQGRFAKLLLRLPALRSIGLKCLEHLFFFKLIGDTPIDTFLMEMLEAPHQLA

Variants of: B1
Conditions: with kra59_human KRTAP5-9, P26371

effect of a mutation on the interaction | Variant
disrupting interaction strength | C16Y

Variants of: B2
Conditions: with kra42_human KRTAP4-2, Q9BYR5

effect of a mutation on the interaction | Variant
with no effect | C16Y

Variants of: B3
Conditions: with kr108_human KRTAP10-8, P60410
kr108_human KRTAP10-8, P60410, sequence (P60410 whole entry): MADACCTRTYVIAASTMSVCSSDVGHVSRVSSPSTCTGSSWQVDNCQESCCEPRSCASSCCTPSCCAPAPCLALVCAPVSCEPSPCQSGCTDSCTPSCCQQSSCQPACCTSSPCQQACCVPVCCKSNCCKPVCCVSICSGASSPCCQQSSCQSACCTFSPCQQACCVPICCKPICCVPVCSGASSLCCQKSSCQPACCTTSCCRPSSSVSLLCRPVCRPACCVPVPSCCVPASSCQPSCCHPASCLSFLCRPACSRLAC

effect of a mutation on the interaction | Variant
disrupting interaction strength | C16Y

Variants of: B3
Conditions: with kr103_human KRTAP10-3, P60369
kr103_human KRTAP10-3, P60369, sequence (P60369 whole entry): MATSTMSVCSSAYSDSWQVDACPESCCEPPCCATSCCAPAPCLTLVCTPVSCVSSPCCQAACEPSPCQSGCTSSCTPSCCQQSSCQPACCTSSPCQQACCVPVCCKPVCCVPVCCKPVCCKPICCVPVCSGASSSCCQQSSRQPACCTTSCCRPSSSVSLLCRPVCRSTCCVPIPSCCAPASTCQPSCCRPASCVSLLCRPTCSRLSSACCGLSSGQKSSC

effect of a mutation on the interaction | Variant
disrupting interaction strength | C16Y

Variants of: B3
Conditions: with kr101_human KRTAP10-1, P60331
kr101_human KRTAP10-1, P60331, sequence (P60331 whole entry): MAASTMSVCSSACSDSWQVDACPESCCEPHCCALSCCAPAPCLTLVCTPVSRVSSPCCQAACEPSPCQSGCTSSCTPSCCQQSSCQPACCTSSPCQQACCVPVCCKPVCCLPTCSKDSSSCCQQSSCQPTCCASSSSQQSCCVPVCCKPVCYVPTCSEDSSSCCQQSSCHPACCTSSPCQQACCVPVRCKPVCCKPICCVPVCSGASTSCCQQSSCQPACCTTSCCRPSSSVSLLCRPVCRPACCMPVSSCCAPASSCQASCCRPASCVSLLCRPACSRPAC

effect of a mutation on the interaction | Variant
with no effect | C16Y

Variants of: B3
Conditions: with hxa1_human HOXA1, P49639
hxa1_human HOXA1, P49639, sequence (P49639 whole entry): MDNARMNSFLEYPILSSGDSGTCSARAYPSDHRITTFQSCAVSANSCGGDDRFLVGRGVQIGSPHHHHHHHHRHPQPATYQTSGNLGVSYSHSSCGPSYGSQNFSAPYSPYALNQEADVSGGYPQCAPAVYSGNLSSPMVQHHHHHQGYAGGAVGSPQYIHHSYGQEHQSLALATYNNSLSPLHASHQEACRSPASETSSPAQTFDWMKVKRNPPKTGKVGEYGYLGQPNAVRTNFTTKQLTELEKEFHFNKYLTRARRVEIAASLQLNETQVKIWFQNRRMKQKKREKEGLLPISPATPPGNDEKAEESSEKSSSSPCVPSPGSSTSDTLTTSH

effect of a mutation on the interaction | Variant
with no effect | C16Y

Variants of: B3
Conditions: with kr105_human KRTAP10-5, P60370
kr105_human KRTAP10-5, P60370, sequence (P60370 whole entry): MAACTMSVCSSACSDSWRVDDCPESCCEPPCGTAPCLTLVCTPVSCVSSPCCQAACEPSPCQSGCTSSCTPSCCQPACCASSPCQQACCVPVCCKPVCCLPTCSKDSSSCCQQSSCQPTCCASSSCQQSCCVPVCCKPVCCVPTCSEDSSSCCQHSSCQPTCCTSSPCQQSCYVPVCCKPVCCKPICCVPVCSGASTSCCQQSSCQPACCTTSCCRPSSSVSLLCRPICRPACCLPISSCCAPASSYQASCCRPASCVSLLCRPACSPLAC

effect of a mutation on the interaction | Variant
disrupting interaction strength | C16Y

Variants of: B3
Conditions: with mdfi_human MDFI

effect of a mutation on the interaction | Variant
disrupting interaction strength | C16Y

Variants of: B3
Conditions: with otx1_human OTX1, P32242
otx1_human OTX1, P32242, sequence (P32242 whole entry): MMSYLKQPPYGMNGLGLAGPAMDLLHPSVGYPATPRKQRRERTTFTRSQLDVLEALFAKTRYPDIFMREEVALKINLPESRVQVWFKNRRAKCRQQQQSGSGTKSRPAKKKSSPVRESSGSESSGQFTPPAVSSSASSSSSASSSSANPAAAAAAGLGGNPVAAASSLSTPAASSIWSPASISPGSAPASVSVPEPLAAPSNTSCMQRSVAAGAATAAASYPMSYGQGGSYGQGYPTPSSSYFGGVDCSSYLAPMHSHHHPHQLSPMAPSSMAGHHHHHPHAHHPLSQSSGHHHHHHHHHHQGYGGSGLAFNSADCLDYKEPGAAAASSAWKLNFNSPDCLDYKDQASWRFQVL

effect of a mutation on the interaction | Variant
with no effect | C16Y

Variants of: B3
Conditions: with kra32_human KRTAP3-2, Q9BYR7
kra32_human KRTAP3-2, Q9BYR7, sequence (Q9BYR7 whole entry): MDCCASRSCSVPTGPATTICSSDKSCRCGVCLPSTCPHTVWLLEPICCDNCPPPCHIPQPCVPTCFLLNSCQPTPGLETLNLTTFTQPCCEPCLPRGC

effect of a mutation on the interaction | Variant
with no effect | C16Y

Variants of: B3
Conditions: with nt2na_human NOTCH2NLA

effect of a mutation on the interaction | Variant
with no effect | C16Y

Variants of: B4
Conditions: with rxrb_human RXRB

effect of a mutation on the interaction | Variant
disrupting interaction strength | P375L
